Results: article doi:10.1101/2020.08.06.234674
Values joined by “and” are separate entries in the source; they are usually repeats but may differ in a detail not shown here. Equal entries are not always repeated.

Experiments:
[1] = target: SARS-CoV-2-3Q-2P full-length spike (SARS-CoV-2) (UniProt P0DTC2); assay: cryo-EM structure
[2] = target: SARS-CoV-2-3Q-2P full-length spike (SARS-CoV-2) (UniProt P0DTC2); assay: negative stain electron microscopy
[3] = target: SARS-CoV-2-3Q-2P full-length spike (SARS-CoV-2) (UniProt P0DTC2); assay: cryo-EM structure; remark: listed apart in the source
[4] = target: SARS-CoV-2-3Q-FL spike (without 2P) (SARS-CoV-2) (UniProt P0DTC2); assay: cryo-EM structure

Substance | stoichiometry N [1] | stoichiometry N [2] | stoichiometry N [3] | stoichiometry N [4]
SARS-CoV-2-3Q-2P full-length spike (from UniProt P0DTC2 14-1273) (natural protein) | 9 | 3 | 3 and 6 | 
SARS-CoV-2-3Q-FL spike (without 2P) (from UniProt P0DTC2 14-1273) (natural protein) |  |  |  | 3
